From US20250197889

Experiments:
[1] = tested on: AcrIIC5Smu
[2] = tested on: certain anti-CRISPRs
[3] = tested on: AcrIIC3Nme
[4] = tested on: AcrIIC2Nme
[5] = tested on: AcrE2
[6] = tested on: AcrIIC4Hpa
[7] = tested on: AcrIIC1Nme

Nme1Cas9-Nme2Cas9PID chimera was tested, and the “in vitro cleavage by the Nme1Cas9-Nme2Cas9PID chimera in the presence of Acr” value [1] was “no inhibition by AcrIIC5Smu on this protein chimera was observed”.
In the case of SmuCas9 (Simonsiella muelleri Cas9), the “Type II-C Cas9 ortholog cleavage tested for sensitivity to anti-CRISPR proteins” value [2] is reported as “all three Type II-C Cas9 orthologs are inhibited by certain anti-CRISPRs”.
With “Nme2Cas9 (Neisseria meningitidis strain De10444/De11444 Cas9), recombinant purified protein” the “in vitro cleavage of a target DNA by Cas9-sgRNA (10:1 Acr:Cas9 molar ratio)” value (“in vitro cleavage … (10:1 Acr:Cas9 molar ratio)” below) [1] was “AcrIIC5Smu did not inhibit Nme2Cas9 in vitro even at 10-fold excess”, the “in vitro cleavage … (10:1 Acr:Cas9 molar ratio)” value [3] was “Acrs IIC1Nme, -IIC2Nme, -IIC3Nme and -IIC4Hpa inhibited Nme2Cas9 gene editing activity” and the “in vitro cleavage … (10:1 Acr:Cas9 molar ratio)” value [4] was “Acrs IIC1Nme, -IIC2Nme, -IIC3Nme and -IIC4Hpa inhibited Nme2Cas9 gene editing activity”. The “in vitro cleavage of a target DNA by Cas9-sgRNA (10:1 ratio of Acr:Cas9)” value [5] was “Nme2Cas9 efficiently cleaves a target containing a protospacer with an N4CC PAM in the presence of AcrE2 and AcrIIC5Smu”, the “in vitro cleavage … (10:1 Acr:Cas9 molar ratio)” value [6] was “Acrs IIC1Nme, -IIC2Nme, -IIC3Nme and -IIC4Hpa inhibited Nme2Cas9 gene editing activity” and the “in vitro cleavage … (10:1 Acr:Cas9 molar ratio)” value [7] was “Acrs IIC1Nme, -IIC2Nme, -IIC3Nme and -IIC4Hpa inhibited Nme2Cas9 gene editing activity”.
